Sequences and labels used below:
B1: TPR t1 (parent)
chain: GACCAAUCUGCCCUCAGAGCUCGAGAACAUCUUCGGAUGCAGAGGAGGCAGGCUUCGGUGGCGCGAUAGCGCCAACGUCCUCAACCUCCAAUGCAUCCCACCACAUGAUGAUGCCUGAAGAGCCUUGGUUUUUUG

The variants in the series derive from B1. Kind of series: polymerase ribozyme fitness, log enrichment relative to wild type (log ratio); higher = more active; in vitro selection for triplet polymerase activity. The procedure, abridged: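 Mutant libraries were PCR-built and transcribed for each subunit of a heterodimeric triplet polymerase ribozyme and selected for one round in triplicate at −7 °C, frozen, before gel excision of extended constructs and streptavidin-bead capture. Input and output libraries were Illumina-sequenced, keeping genotypes with ≥10 input reads and ≥1 read per output. Fitness is a logarithmic ratio of genotype to wild-type enrichment, in base 2, using inverse-variance-weighted replicate averages.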
Take C70G C94A: the “polymerase ribozyme fitness (log ratio)” value was -3.62.

With C70G C79G C98U U109G U125A, the “polymerase ribozyme fitness (log ratio)” value was -7.56. The result for C70U C73A C102U A118U reads -2.08; that for C72A U78C, -0.145. With C72A U78A, the “polymerase ribozyme fitness (log ratio)” value is 0.142. With C70U C101A U106C U133A, the “polymerase ribozyme fitness (log ratio)” value is -0.685.

Turning to C72G U116A, the “polymerase ribozyme fitness (log ratio)” value is -3.49. As to C70U G122A U126A, the “polymerase ribozyme fitness (log ratio)” value is -3.62.

With C70G A100U G117A A118C, the “polymerase ribozyme fitness (log ratio)” value is -6.05. The result for C70A C79A reads -3.11; that for C72U C79G, -1.97; that for G71C U78G, -3.19.

Take G71C A84G C104A U109G G117U C124A U130G: the “polymerase ribozyme fitness (log ratio)” value was -5.84. The result for G71U C102U reads -1.69; that for C72G U78G G110U, -2.55.

As for C72A U81C C82A, the “polymerase ribozyme fitness (log ratio)” value is -1.12. With G71A C102A the figure was -2.99. The result for G71U U81G reads -4.34; that for C70U C114A G128U, -4.2; that for G69U U81A, 0.151. On to G69U G107A, for which the “polymerase ribozyme fitness (log ratio)” value is -3.34. As to C70A G117U A121C U130C, the “polymerase ribozyme fitness (log ratio)” value was -4.1. With C72U A103C the figure was -4.5; with C72U A118U U130C, 0.16; with C72G U109A C123A, -5.46. With C72U C86U the figure was -0.347. The result for G71U G113C C114U G128A reads -3.3; that for C70U C97U U106A G127U, -1.69; that for G71A A111C, -0.4.

Consider C70G C124G, for which the “polymerase ribozyme fitness (log ratio)” value was -0.578. With C70U U112A the figure was 0.732. The result for C70U C85G U87A A111G G120A reads -5.35; that for G69U U130A, -0.136; that for C70A U130C, -2.15. The result for C72U C79A C115U reads -3.58.

For C72U C76U, the “polymerase ribozyme fitness (log ratio)” value was 0.954.

Take G71A C79U A83G U129G: the “polymerase ribozyme fitness (log ratio)” value was -3.32. The result for C70U U81G A84C G122A reads -5.65; that for C72A G107A C124G, -5.06; that for C72G G128C, -2.25. In the case of C70U U78A A95U U112G, the “polymerase ribozyme fitness (log ratio)” value was -2.17.

On to C72U A84G G117C, for which the “polymerase ribozyme fitness (log ratio)” value is -4.48. In the case of G71A U96A U116A, the “polymerase ribozyme fitness (log ratio)” value is -3.94. With G71U A84G U126C U133A the figure was -2.74; with C72G C97A, -5.43. Regarding G71A G77A U78G, the “polymerase ribozyme fitness (log ratio)” value was -4.6. In the case of C70U G128U U133G, the “polymerase ribozyme fitness (log ratio)” value is -2.39. Regarding G71A A83G, the “polymerase ribozyme fitness (log ratio)” value is -1.61. The result for C72A U96A reads -1.74.

In the case of G69U U87A C97A, the “polymerase ribozyme fitness (log ratio)” value was -2.19.

As for C72A A83U G128U, the “polymerase ribozyme fitness (log ratio)” value was -2.86.

G71C C114U G122A U129A: the “polymerase ribozyme fitness (log ratio)” value is -4.82. With G71A G120U the figure was 0.349; with G71U U125A, -1.21; with G71U U81G U112A, -5.24. The result for G71A C73U reads -2.15. The result for G71A A74G C88A C97A G117C reads -5.77; that for C72U C79A U106C, -1.81. Take G71C C94A: the “polymerase ribozyme fitness (log ratio)” value was -4.08. In the case of C72U C85G, the “polymerase ribozyme fitness (log ratio)” value was -2.48. As to C70U C94A, the “polymerase ribozyme fitness (log ratio)” value is -1.13.

Regarding C70U C94G, the “polymerase ribozyme fitness (log ratio)” value was -0.729. With C72U C85U U109A A121G, the “polymerase ribozyme fitness (log ratio)” value is -4.72. With C70U A90C U92C C102A G120C U132A the figure was -5.71; with G71C U130G, -1.76.

Take C70U G113A U131A: the “polymerase ribozyme fitness (log ratio)” value is -0.868. With C72A C114G the figure was -2.31; with C72A U92A, -2.67; with C70A C79A A91C G120U, -7.09.

C72A A108U: the “polymerase ribozyme fitness (log ratio)” value was -5.64. The result for G71A G120C G122A reads -1.43; that for G69U U87A G127U U130A G135U, -2.93. With C72A C85A the figure was 0.00801; with C70A U126A, -2.53. The result for G71C C82A U112A A118U reads -0.627; that for G71A C101A G113U, -5.02. Regarding C72U C73A A91U U131C U132C, the “polymerase ribozyme fitness (log ratio)” value is -2.72. As for C70G C104U, the “polymerase ribozyme fitness (log ratio)” value was -3.03. With C70A C94U A100C, the “polymerase ribozyme fitness (log ratio)” value was -2.44. As for G71U A84C, the “polymerase ribozyme fitness (log ratio)” value was -0.343. The result for C72A C82A reads 0.281; that for C72A C82U, 0.305.

On to C70U A74U C86A, for which the “polymerase ribozyme fitness (log ratio)” value is -4.13.

(Values after the RNAGym collection of RNA variant scans (doi:10.1073/pnas.2313332121).)
